Reference: ChEMBL document CHEMBL1143427, “Interactions of ceftobiprole with beta-lactamases from molecular classes A to D” (Antimicrob Agents Chemother, 2007)

What was measured:
[1] = substrate: CC1(C)S[C@@H]2[C@H](NC(=O)Cc3ccccc3)C(=O)N2[C@H]1C(=O)O; experiment: (§1) Activity of Pseudomonas aeruginosa MK-1184 AmpC assessed as drug hydrolysis by spectrophotometry
[2] = substrate: CC(C)(O/N=C(\C(=O)N[C@@H]1C(=O)N2C(C(=O)[O-])=C(C[n+]3ccccc3)CS[C@H]12)c1csc(N)n1)C(=O)O; experiment: as §1
[3] = substrate: O=C(Cc1cccs1)N[C@@H]1C(=O)N2C(C(=O)[O-])=C(C[n+]3ccccc3)CS[C@H]12; experiment: as §1
[4] = substrate: CO/N=C(\C(=O)N[C@@H]1C(=O)N2C(C(=O)[O-])=C(C[N+]3(C)CCCC3)CS[C@H]12)c1csc(N)n1; experiment: as §1
[5] = substrate: Nc1nc(/C(=N/O)C(=O)N[C@@H]2C(=O)N3C(C(=O)O)=C(/C=C4\CCN([C@@H]5CCNC5)C4=O)CS[C@H]23)ns1; experiment: as §1
[6] = substrate: CC1(C)S[C@@H]2[C@H](NC(=O)Cc3ccccc3)C(=O)N2[C@H]1C(=O)O; experiment: (§2) Ratio of Kcat to Km of Pseudomonas aeruginosa 18SH AmpC assessed as drug hydrolysis by spectrophotometry
[7] = substrate: O=C(Cc1cccs1)N[C@@H]1C(=O)N2C(C(=O)[O-])=C(C[n+]3ccccc3)CS[C@H]12; experiment: as §2
[8] = substrate: CO/N=C(\C(=O)N[C@@H]1C(=O)N2C(C(=O)[O-])=C(C[N+]3(C)CCCC3)CS[C@H]12)c1csc(N)n1; experiment: as §2
[9] = substrate: Nc1nc(/C(=N/O)C(=O)N[C@@H]2C(=O)N3C(C(=O)O)=C(/C=C4\CCN([C@@H]5CCNC5)C4=O)CS[C@H]23)ns1; experiment: as §2
[10] = substrate: CC1(C)S[C@@H]2[C@H](NC(=O)Cc3ccccc3)C(=O)N2[C@H]1C(=O)O; experiment: (§3) Ratio of Kcat to Km of Pseudomonas aeruginosa 4352 AmpC assessed as drug hydrolysis by spectrophotometry
[11] = substrate: CC(C)(O/N=C(\C(=O)N[C@@H]1C(=O)N2C(C(=O)[O-])=C(C[n+]3ccccc3)CS[C@H]12)c1csc(N)n1)C(=O)O; experiment: as §3
[12] = substrate: O=C(Cc1cccs1)N[C@@H]1C(=O)N2C(C(=O)O)=C(/C=C/c3ccc([N+](=O)[O-])cc3[N+](=O)[O-])CS[C@H]12; experiment: as §3
[13] = substrate: O=C(Cc1cccs1)N[C@@H]1C(=O)N2C(C(=O)[O-])=C(C[n+]3ccccc3)CS[C@H]12; experiment: as §3
[14] = substrate: CO/N=C(\C(=O)N[C@@H]1C(=O)N2C(C(=O)[O-])=C(C[N+]3(C)CCCC3)CS[C@H]12)c1csc(N)n1; experiment: as §3
[15] = substrate: Nc1nc(/C(=N/O)C(=O)N[C@@H]2C(=O)N3C(C(=O)O)=C(/C=C4\CCN([C@@H]5CCNC5)C4=O)CS[C@H]23)ns1; experiment: as §3
[16] = substrate: CC1(C)S[C@@H]2[C@H](NC(=O)Cc3ccccc3)C(=O)N2[C@H]1C(=O)O; experiment: (§4) Ratio of Kcat to Km of Pseudomonas aeruginosa MK-1184 AmpC assessed as drug hydrolysis by spectrophotometry
[17] = substrate: CC(C)(O/N=C(\C(=O)N[C@@H]1C(=O)N2C(C(=O)[O-])=C(C[n+]3ccccc3)CS[C@H]12)c1csc(N)n1)C(=O)O; experiment: as §4
[18] = substrate: O=C(Cc1cccs1)N[C@@H]1C(=O)N2C(C(=O)[O-])=C(C[n+]3ccccc3)CS[C@H]12; experiment: as §4
[19] = substrate: CO/N=C(\C(=O)N[C@@H]1C(=O)N2C(C(=O)[O-])=C(C[N+]3(C)CCCC3)CS[C@H]12)c1csc(N)n1; experiment: as §4
[20] = substrate: Nc1nc(/C(=N/O)C(=O)N[C@@H]2C(=O)N3C(C(=O)O)=C(/C=C4\CCN([C@@H]5CCNC5)C4=O)CS[C@H]23)ns1; experiment: as §4
[21] = substrate: CC1(C)S[C@@H]2[C@H](NC(=O)Cc3ccccc3)C(=O)N2[C@H]1C(=O)O; experiment: (§5) Activity of Pseudomonas aeruginosa 4352 AmpC assessed as drug hydrolysis by spectrophotometry
[22] = substrate: CC(C)(O/N=C(\C(=O)N[C@@H]1C(=O)N2C(C(=O)[O-])=C(C[n+]3ccccc3)CS[C@H]12)c1csc(N)n1)C(=O)O; experiment: as §5
[23] = substrate: O=C(Cc1cccs1)N[C@@H]1C(=O)N2C(C(=O)O)=C(/C=C/c3ccc([N+](=O)[O-])cc3[N+](=O)[O-])CS[C@H]12; experiment: as §5
[24] = substrate: O=C(Cc1cccs1)N[C@@H]1C(=O)N2C(C(=O)[O-])=C(C[n+]3ccccc3)CS[C@H]12; experiment: as §5
[25] = substrate: CO/N=C(\C(=O)N[C@@H]1C(=O)N2C(C(=O)[O-])=C(C[N+]3(C)CCCC3)CS[C@H]12)c1csc(N)n1; experiment: as §5
[26] = substrate: Nc1nc(/C(=N/O)C(=O)N[C@@H]2C(=O)N3C(C(=O)O)=C(/C=C4\CCN([C@@H]5CCNC5)C4=O)CS[C@H]23)ns1; experiment: as §5
[27] = substrate: CC1(C)S[C@@H]2[C@H](NC(=O)Cc3ccccc3)C(=O)N2[C@H]1C(=O)O; experiment: (§6) Ratio of Kcat to Km of Pseudomonas aeruginosa AmpC assessed as drug hydrolysis by spectrophotometry
[28] = substrate: O=C(Cc1cccs1)N[C@@H]1C(=O)N2C(C(=O)[O-])=C(C[n+]3ccccc3)CS[C@H]12; experiment: as §6
[29] = substrate: CO/N=C(\C(=O)N[C@@H]1C(=O)N2C(C(=O)[O-])=C(C[N+]3(C)CCCC3)CS[C@H]12)c1csc(N)n1; experiment: as §6
[30] = substrate: Nc1nc(/C(=N/O)C(=O)N[C@@H]2C(=O)N3C(C(=O)O)=C(/C=C4\CCN([C@@H]5CCNC5)C4=O)CS[C@H]23)ns1; experiment: as §6
[31] = substrate: CC1(C)S[C@@H]2[C@H](NC(=O)Cc3ccccc3)C(=O)N2[C@H]1C(=O)O; experiment: (§7) Activity of Pseudomonas aeruginosa AmpC assessed as drug hydrolysis by spectrophotometry
[32] = substrate: CC(C)(O/N=C(\C(=O)N[C@@H]1C(=O)N2C(C(=O)[O-])=C(C[n+]3ccccc3)CS[C@H]12)c1csc(N)n1)C(=O)O; experiment: as §7
[33] = substrate: O=C(Cc1cccs1)N[C@@H]1C(=O)N2C(C(=O)[O-])=C(C[n+]3ccccc3)CS[C@H]12; experiment: as §7
[34] = substrate: CO/N=C(\C(=O)N[C@@H]1C(=O)N2C(C(=O)[O-])=C(C[N+]3(C)CCCC3)CS[C@H]12)c1csc(N)n1; experiment: as §7
[35] = substrate: Nc1nc(/C(=N/O)C(=O)N[C@@H]2C(=O)N3C(C(=O)O)=C(/C=C4\CCN([C@@H]5CCNC5)C4=O)CS[C@H]23)ns1; experiment: as §7
[36] = substrate: CC1(C)S[C@@H]2[C@H](NC(=O)Cc3ccccc3)C(=O)N2[C@H]1C(=O)O; experiment: (§8) Activity of Pseudomonas aeruginosa 18SH AmpC assessed as drug hydrolysis by spectrophotometry
[37] = substrate: CC(C)(O/N=C(\C(=O)N[C@@H]1C(=O)N2C(C(=O)[O-])=C(C[n+]3ccccc3)CS[C@H]12)c1csc(N)n1)C(=O)O; experiment: as §8
[38] = substrate: O=C(Cc1cccs1)N[C@@H]1C(=O)N2C(C(=O)[O-])=C(C[n+]3ccccc3)CS[C@H]12; experiment: as §8
[39] = substrate: CO/N=C(\C(=O)N[C@@H]1C(=O)N2C(C(=O)[O-])=C(C[N+]3(C)CCCC3)CS[C@H]12)c1csc(N)n1; experiment: as §8
[40] = substrate: Nc1nc(/C(=N/O)C(=O)N[C@@H]2C(=O)N3C(C(=O)O)=C(/C=C4\CCN([C@@H]5CCNC5)C4=O)CS[C@H]23)ns1; experiment: as §8

B1: Beta-lactamase (Pseudomonas aeruginosa (strain ATCC 15692 / PAO1 / 1C / PRS 101 / LMG12228)), P24735 (protein)
chain: MRDTRFPCLCGIAASTLLFATTPAIAGEAPADRLKALVDAAVQPVMKANDIPGLAVAISLKGEPHYFSYGLASKEDGRRVTPETLFEIGSVSKTFTATLAGYALTQDKMRLDDRASQHWPALQGSRFDGISLLDLATYTAGGLPLQFPDSVQKDQAQIRDYYRQWQPTYAPGSQRLYSNPSIGLFGYLAARSLGQPFERLMEQQVFPALGLEQTHLDVPEAALAQYAQGYGKDDRPLRVGPGPLDAEGYGVKTSAADLLRFVDANLHPERLDRPWAQALDATHRGYYKVGDMTQGLGWEAYDWPISLKRLQAGNSTPMALQPHRIARLPAPQALEGQRLLNKTGSTNGFGAYVAFVPGRDLGLVILANRNYPNAERVKIAYAILSGLEQQGKVPLKR
Km [1]: 3 µM | kcat [1]: 20 s⁻¹ | Km [2]: 12 µM | kcat [2]: 0.69 s⁻¹ | Km [3]: 21 µM | kcat [3]: 22 s⁻¹ | Km [4]: 38 µM | kcat [4]: 0.33 s⁻¹ | Km [5]: 42 µM | kcat [5]: 0.45 s⁻¹ | kcat/Km [6]: 1.1e+06 M⁻¹ s⁻¹ | kcat/Km [7]: 1.8e+06 M⁻¹ s⁻¹ | kcat/Km [8]: 9000 M⁻¹ s⁻¹ | kcat/Km [9]: 13000 M⁻¹ s⁻¹ | kcat/Km [10]: 3.4e+06 M⁻¹ s⁻¹ | kcat/Km [11]: < 1300 M⁻¹ s⁻¹ | kcat/Km [12]: 5.7e+06 M⁻¹ s⁻¹ | kcat/Km [13]: 310000 M⁻¹ s⁻¹ | kcat/Km [14]: < 33 M⁻¹ s⁻¹ | kcat/Km [15]: < 440 M⁻¹ s⁻¹ | kcat/Km [16]: 6.7e+06 M⁻¹ s⁻¹ | kcat/Km [17]: 58000 M⁻¹ s⁻¹ | kcat/Km [18]: 1.1e+06 M⁻¹ s⁻¹ | kcat/Km [19]: 8600 M⁻¹ s⁻¹ | kcat/Km [20]: 11000 M⁻¹ s⁻¹ | Km [21]: 11 µM | kcat [21]: 37 s⁻¹ | Km [22]: 8 µM | kcat [22]: < 0.01 s⁻¹ | Km [23]: 12 µM | kcat [23]: 68 s⁻¹ | Km [24]: 320 µM | kcat [24]: 100 s⁻¹ | Km [25]: 370 µM | kcat [25]: < 0.012 s⁻¹ | Km [26]: 55 µM | kcat [26]: < 0.024 s⁻¹ | kcat/Km [27]: 1.1e+07 M⁻¹ s⁻¹ | kcat/Km [28]: 80000 M⁻¹ s⁻¹ | kcat/Km [29]: 1300 M⁻¹ s⁻¹ | kcat/Km [30]: 7.9e+06 M⁻¹ s⁻¹ | Km [31]: 7.9 µM | kcat [31]: 86 s⁻¹ | kcat [32]: < 0.0095 s⁻¹ | Km [33]: 200 µM | kcat [33]: 16 s⁻¹ | Km [34]: 230 µM | kcat [34]: 3.1 s⁻¹ | Km [35]: 29 µM | kcat [35]: 230 s⁻¹ | Km [36]: 40 µM | kcat [36]: 45 s⁻¹ | Km [37]: 20 µM | kcat [37]: < 0.1 s⁻¹ | Km [38]: 71 µM | kcat [38]: 130 s⁻¹ | Km [39]: 210 µM | kcat [39]: < 0.1 s⁻¹ | Km [40]: 280 µM | kcat [40]: 3.6 s⁻¹
